Bridges are numbered along the chain shown (N, C = ends). Where no end group is shown, it is not given here. [ ]: non-standard residue; d: D form. Trp(5-OH) = N[C@@H](Cc1c[nH]c2ccc(O)cc12)C(=O)O; Phe(4-NH2) = Nc1ccc(C[C@H](N)C(=O)O)cc1; βAla = NCCC(=O)O
Key:
PDZ3cα fragment = conditions: cited from earlier work
[1] = target: PSD-95 PDZ3cα protein (residues R309-S422) (UniProt P78352); assay: SPR
[2] = target: PSD-95 PDZ3cα protein (residues R309-S422) (UniProt P78352 309-422); assay: SPR
PSD-95 PDZ3cα protein (residues R309-S422) (UniProt P78352 309-422), sequence (P78352 309-422): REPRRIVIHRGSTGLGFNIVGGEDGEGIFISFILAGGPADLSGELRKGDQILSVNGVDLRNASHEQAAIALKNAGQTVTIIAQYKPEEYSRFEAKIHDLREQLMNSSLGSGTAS

PSD-95 PDZ3cα protein (residues R309-S422) (UniProt P78352), sequence (P78352 309-422): as above

| Kd [2] | koff [2] | kon [2] | Molecule | also measured |
| --- | --- | --- | --- | --- |
| 11100 nM | 0.00592 s⁻¹ | 1000 M⁻¹ s⁻¹ | GSFPPWVQ [αC binder (peptide 8), fragment of the SYNGAP peptide made up of only αC helix interacting residues] |  |
|  | 0.0287 s⁻¹ | 439000 M⁻¹ s⁻¹ | CGSFPPWVKKTEV (bridge 10-12; not fully specified (residue 10, bridges)) [Syn3* (peptide 4), active component peptide of Syn3 without the poly-arginine moiety] |  |
| 57.3 nM | 0.0182 s⁻¹ | 317000 M⁻¹ s⁻¹ | RRRRRRGSFPPWV[dQ]QTRV [D-Gln9 (peptide 18), SYNGAP peptide with d-Gln] |  |
| 6.1 nM | 0.0116 s⁻¹ | 1.88e+06 M⁻¹ s⁻¹ | RRRRRRGSF[dP]PWVQQTRV [D-Pro4 (peptide 15), SYNGAP peptide with d-Pro at the first proline] |  |
| 7.8 nM | 0.00493 s⁻¹ | 633000 M⁻¹ s⁻¹ | RRRRRRG[dS]FPPWVQQTRV [D-Ser3 (peptide 14), SYNGAP peptide with d-Ser] |  |
| 24.3 nM | 0.0444 s⁻¹ | 1.83e+06 M⁻¹ s⁻¹ | RRRRRRGSFP[dP]WVQQTRV [D-Pro5 (peptide 16), SYNGAP peptide with d-Pro at the second proline] |  |
| 20.9 nM | 0.0459 s⁻¹ | 2.19e+06 M⁻¹ s⁻¹ | RRRRRRGSFPPW[dV]QQTRV [D-Val8 (peptide 17), SYNGAP peptide with d-Val] |  |

Second part, the molecule before the results:

| Molecule | Kd [2] | koff [2] | kon [2] | also measured |
| --- | --- | --- | --- | --- |
| -YKQTSV [CRIPT linear PBM] |  |  |  | fold higher affinity for PDZ3cα fragment than for the isolated PDZ3 domain (PDZ3cα fragment; ref [31]): 21 fold |
| F4H (peptide 11), SYNGAP peptide with the substitution F4H |  |  |  | Kd [1]: 121 nM; koff [1]: 0.0261 s⁻¹; kon [1]: 216000 M⁻¹ s⁻¹ |
| V8I (peptide 10), SYNGAP peptide with the substitution V8I |  |  |  | Kd [1]: 101 nM; koff [1]: 0.00294 s⁻¹ |
| -VQQTRV [SynGAP PBM] |  |  |  | fold higher affinity to the longer PDZ3cα fragment (PDZ3cα fragment; relative to isolated PDZ domains, ref [10], [30]): 15 fold |
| V8L (peptide 9), SYNGAP peptide with the substitution V8L |  |  |  | Kd [1]: 58.4 nM; koff [1]: 0.00381 s⁻¹ |
| RRRRRRGS[Phe(4-NH2)]PPWVQQTRV [F4-NH2F (peptide 12), SYNGAP peptide with ζ-Amino-Phe in place of Phe4] | 67.8 nM | 0.0104 s⁻¹ | 153000 M⁻¹ s⁻¹ |  |
| CKNYKKTEV (lactam 6-8 via βAla) [Cyclic peptide derived from CRIPT (peptide 6)] |  | 0.0291 s⁻¹ | 76000 M⁻¹ s⁻¹ |  |
| RRRRRRGSFPP[Trp(5-OH)]VQQTRV [W7-OHW (peptide 13), SYNGAP peptide with 5-hydroxy-Trp in place of Trp7] | 446 nM | 0.0106 s⁻¹ | 24000 M⁻¹ s⁻¹ |  |

From PMC10842001 (FEBS letters, 2023)
